Measured values taken from patent publication US12331106B2, “Anti-angiopoietin-2 antibodies that induce Tie2 activation” (Institute for Basic Science, priority 2018, dated 2025).
“Also recorded” adds a separate entry of the source. Read-outs that look alike come from different tables or passages of the source.

Target: T1, hAng2-RBD (Homo sapiens, UniProt O15123)
T1 construct: made in house; host or cells: HEK293F
T1 sequence (O15123 276-496): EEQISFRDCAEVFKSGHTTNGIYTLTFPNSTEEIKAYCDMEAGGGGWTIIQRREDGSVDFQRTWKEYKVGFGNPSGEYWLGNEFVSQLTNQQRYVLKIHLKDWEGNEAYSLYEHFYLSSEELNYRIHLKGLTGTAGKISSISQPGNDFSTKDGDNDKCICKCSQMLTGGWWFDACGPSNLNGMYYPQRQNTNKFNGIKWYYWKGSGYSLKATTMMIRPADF
Type: binding
Conditions: for epitope of hAng2-RBD to which the antibody binds: deuterium uptake difference 0.5-1 Da or more considered significant
Experimental: The antigenic determinants (epitopes) of hAng2 recognized by mouse monoclonal antibodies, 2C8 and 4B9, were analyzed by HDX-MS (Hydrogen/deuterium exchange-mass spectrometry) technique. HDX-MS analysis methods are described in the following articles; Houde D, Engen J R (2013) Methods Mol. Biol. 988: 269-89 and Houde et al. (2011) J. Pharm. Sci. 100 (6), 2071.
Recombinant hAng2-RBD protein was used to analyze the epitopes of antibodies 2C8 and 4B9. […] The prepared hAng2-RBD/antibody complexes were diluted 15 times with deuterium labeling buffer, labeled at various time, and then quenched with the same volume of quenching buffer. The labeling reaction time was 0 min (undeuterium), 0.33 min, 10 min, 60 min and 240 min. However, in undeuterium condition, the deuterium labeling buffer was replaced with equilibrium buffer and the reaction was immediately stopped with quenching buffer. For mass spectrometry, the deuterium labeled hAng2-RBD/antibody samples were loaded on a pepsin column and peptide digestion was proceeded.
The deuterium uptake difference between hAng2-RBD alone and the hAng2-RBD-antibody complex conditions was comparatively analyzed, and a region showing a distinct decrease in the deuterium uptake is either a peptide to which the antibody binds directly, or a structurally changed region. When the deuterium uptake difference between hAng2-RBD alone and the hAng2-RBD-antibody complex was 0.5-1 Da or more, it was considered significant.
In the case of antibody 4B9, it cannot be ruled out that an undetermined region (residues 25 to 40 of SEQ ID NO: 2) can be included in the scope of the epitope. The epitope analysis results for each antibody are shown in different colors on the 3D structure of hAng2-RBD, which was generated using PyMol software (FIG. 2).

B1: 2C8: mouse monoclonal anti-Ang2 antibody; VH SEQ ID NO: 19, VL SEQ ID NO: 21; hybridoma KCLRF-BP-00417 (antibody, V domains shown)
VH: QVQLQQSGPQLVRPGASVKISCKASGYSFTSYWMHWVKQRPGQGLEWIGMIDPSDSETRLNQKFKDKASLTVDKSSSTAYMQLSSPTSGDSAVYYCARRFYYGSDWYFDVWGAGSTVTVSS
VL: DIVMTQSHKFMSTSVGDRVSITCKASQDVGTAVAWYQQKPGQSPKLLIYWASTRHTGVPDRFTGSGSGTDFTLTISNVQSEDLADYFCQQYSSYPLTFGSGTKLEIK
modifications: Heavy Chain Variable Region; Light Chain Variable Region
notes: mouse monoclonal anti-Ang2 antibody; hybridoma KCLRF-BP-00417
B1 was tested, and the “Relative Uptake (Da) Δ” value (2C8, residues 52-60 (SEQ ID NO: 2), exposure time 0.00 min) was 0.15 Da, the “Relative Uptake (Da) Δ” value (2C8, residues 52-60 (SEQ ID NO: 2), exposure time 0.33 min) was 0.21 Da and the “Relative Uptake (Da) Δ” value (2C8, residues 52-60 (SEQ ID NO: 2), exposure time 10.00 min) was 0.41 Da. For the same molecule, the “Relative Uptake (Da) Δ” value (2C8, residues 52-60 (SEQ ID NO: 2), exposure time 60.00 min) was 0.14 Da, the “Relative Uptake (Da) Δ” value (2C8, residues 52-60 (SEQ ID NO: 2), exposure time 240.00 min) was 0.08 Da and the “Relative Uptake (Da) Δ” value (2C8, residues 61-77 (SEQ ID NO: 2), exposure time 0.00 min) was 0.08 Da. For the same molecule, the “Relative Uptake (Da) Δ” value (2C8, residues 61-77 (SEQ ID NO: 2), exposure time 0.33 min) was 1.18 Da, the “Relative Uptake (Da) Δ” value (2C8, residues 61-77 (SEQ ID NO: 2), exposure time 10.00 min) was 1.78 Da and the “Relative Uptake (Da) Δ” value (2C8, residues 61-77 (SEQ ID NO: 2), exposure time 60.00 min) was 1.36 Da. The “Relative Uptake (Da) Δ” value (2C8, residues 61-77 (SEQ ID NO: 2), exposure time 240.00 min) was 1.31 Da, the “Relative Uptake (Da) Δ” value (2C8, residues 61-78 (SEQ ID NO: 2), exposure time 0.00 min) was 0.06 Da and the “Relative Uptake (Da) Δ” value (2C8, residues 61-78 (SEQ ID NO: 2), exposure time 0.33 min) was 1.15 Da. For the same molecule, the “Relative Uptake (Da) Δ” value (2C8, residues 61-78 (SEQ ID NO: 2), exposure time 10.00 min) was 1.80 Da, the “Relative Uptake (Da) Δ” value (2C8, residues 61-78 (SEQ ID NO: 2), exposure time 60.00 min) was 1.33 Da and the “Relative Uptake (Da) Δ” value (2C8, residues 61-78 (SEQ ID NO: 2), exposure time 240.00 min) was 1.34 Da. For the same molecule, the “Relative Uptake (Da) Δ” value (2C8, residues 67-77 (SEQ ID NO: 2), exposure time 0.00 min) was −0.12 Da, the “Relative Uptake (Da) Δ” value (2C8, residues 67-77 (SEQ ID NO: 2), exposure time 0.33 min) was 0.89 Da and the “Relative Uptake (Da) Δ” value (2C8, residues 67-77 (SEQ ID NO: 2), exposure time 10.00 min) was 1.58 Da. For the same molecule, the “Relative Uptake (Da) Δ” value (2C8, residues 67-77 (SEQ ID NO: 2), exposure time 60.00 min) was 1.21 Da, the “Relative Uptake (Da) Δ” value (2C8, residues 67-77 (SEQ ID NO: 2), exposure time 240.00 min) was 1.07 Da and the “Relative Uptake (Da) Δ” value (2C8, residues 67-78 (SEQ ID NO: 2), exposure time 0.00 min) was 0.30 Da. The “Relative Uptake (Da) Δ” value (2C8, residues 67-78 (SEQ ID NO: 2), exposure time 0.33 min) was 0.95 Da, the “Relative Uptake (Da) Δ” value (2C8, residues 67-78 (SEQ ID NO: 2), exposure time 10.00 min) was 1.66 Da and the “Relative Uptake (Da) Δ” value (2C8, residues 67-78 (SEQ ID NO: 2), exposure time 60.00 min) was 1.33 Da. The “Relative Uptake (Da) Δ” value (2C8, residues 67-78 (SEQ ID NO: 2), exposure time 240.00 min) was 1.04 Da, the “Relative Uptake (Da) Δ” value (2C8, residues 78-84 (SEQ ID NO: 2), exposure time 0.00 min) was 0.00 Da and the “Relative Uptake (Da) Δ” value (2C8, residues 78-84 (SEQ ID NO: 2), exposure time 0.33 min) was −0.01 Da. For the same molecule, the “Relative Uptake (Da) Δ” value (2C8, residues 78-84 (SEQ ID NO: 2), exposure time 10.00 min) was 0.01 Da, the “Relative Uptake (Da) Δ” value (2C8, residues 78-84 (SEQ ID NO: 2), exposure time 60.00 min) was 0.11 Da and the “Relative Uptake (Da) Δ” value (2C8, residues 78-84 (SEQ ID NO: 2), exposure time 240.00 min) was 0.36 Da. The “epitope of hAng2-RBD to which the antibody binds” value was “residues 61 to 78 of SEQ ID NO: 2”.

B2: 4B9: mouse monoclonal anti-Ang2 antibody; VH SEQ ID NO: 9, VL SEQ ID NO: 11; hybridoma KCLRF-BP-00418 (antibody, V domains shown)
VH: EVQLVESGGGLVKPGGSLKLSCAASGFTFSDYYMYWVRQTPEKRLEWVATISVGGSFTYYPDSVKGRFTISRDNAKNNLYLQMSSLKSEDTAMYYCARDWGLRPWFVYWGQGTLVTVSA
VL: DIVMTQSHKFMSTSVGDRVSITCKASQDVSTAVAWYQQKPGQSPKLLIYWASTRHTGVPDRFTGSGSGTDYTLTISSVQAEDLALYYCQQHYSTPPTFGSGTKLEIK
modifications: Heavy Chain Variable Region; Light Chain Variable Region
notes: mouse monoclonal anti-Ang2 antibody; hybridoma KCLRF-BP-00418
In the case of B2, the “Relative Uptake (Da) Δ” value (4B9, residues 14-23 (SEQ ID NO: 2), exposure time 0.00 min) is reported as 0.25 Da, the “Relative Uptake (Da) Δ” value (4B9, residues 14-23 (SEQ ID NO: 2), exposure time 0.33 min) is reported as 0.34 Da and the “Relative Uptake (Da) Δ” value (4B9, residues 14-23 (SEQ ID NO: 2), exposure time 10.00 min) is reported as 0.83 Da. The “Relative Uptake (Da) Δ” value (4B9, residues 14-23 (SEQ ID NO: 2), exposure time 60.00 min) was 0.78 Da, the “Relative Uptake (Da) Δ” value (4B9, residues 14-23 (SEQ ID NO: 2), exposure time 240.00 min) was 0.60 Da and the “Relative Uptake (Da) Δ” value (4B9, residues 14-24 (SEQ ID NO: 2), exposure time 0.00 min) was 0.01 Da. For the same molecule, the “Relative Uptake (Da) Δ” value (4B9, residues 14-24 (SEQ ID NO: 2), exposure time 0.33 min) was 0.33 Da, the “Relative Uptake (Da) Δ” value (4B9, residues 14-24 (SEQ ID NO: 2), exposure time 10.00 min) was 1.50 Da and the “Relative Uptake (Da) Δ” value (4B9, residues 14-24 (SEQ ID NO: 2), exposure time 60.00 min) was 1.35 Da. For the same molecule, the “Relative Uptake (Da) Δ” value (4B9, residues 14-24 (SEQ ID NO: 2), exposure time 240.00 min) was 0.80 Da, the “Relative Uptake (Da) Δ” value (4B9, residues 41-47 (SEQ ID NO: 2), exposure time 0.00 min) was 0.15 Da and the “Relative Uptake (Da) Δ” value (4B9, residues 41-47 (SEQ ID NO: 2), exposure time 0.33 min) was 1.02 Da. For the same molecule, the “Relative Uptake (Da) Δ” value (4B9, residues 41-47 (SEQ ID NO: 2), exposure time 10.00 min) was 0.92 Da, the “Relative Uptake (Da) Δ” value (4B9, residues 41-47 (SEQ ID NO: 2), exposure time 60.00 min) was 1.15 Da and the “Relative Uptake (Da) Δ” value (4B9, residues 41-47 (SEQ ID NO: 2), exposure time 240.00 min) was 1.18 Da. For the same molecule, the “Relative Uptake (Da) Δ” value (4B9, residues 47-60 (SEQ ID NO: 2), exposure time 0.00 min) was 0.05 Da, the “Relative Uptake (Da) Δ” value (4B9, residues 47-60 (SEQ ID NO: 2), exposure time 0.33 min) was −0.13 Da and the “Relative Uptake (Da) Δ” value (4B9, residues 47-60 (SEQ ID NO: 2), exposure time 10.00 min) was −0.06 Da. The “Relative Uptake (Da) Δ” value (4B9, residues 47-60 (SEQ ID NO: 2), exposure time 60.00 min) was −0.01 Da, the “Relative Uptake (Da) Δ” value (4B9, residues 47-60 (SEQ ID NO: 2), exposure time 240.00 min) was −0.11 Da and the “epitope of hAng2-RBD to which the antibody binds” value was “residues 14 to 24 of SEQ ID NO: 2; also recorded: residues 41 to 47 of SEQ ID NO: 2”. The “Relative Uptake (Da) hAng2-RBD + 4B9” value (residues 14-23 (SEQ ID NO: 2), exposure time 0.00 min) was 0.55 Da, the “Relative Uptake (Da) hAng2-RBD + 4B9” value (residues 14-23 (SEQ ID NO: 2), exposure time 0.33 min) was 0.97 Da and the “Relative Uptake (Da) hAng2-RBD + 4B9” value (residues 14-23 (SEQ ID NO: 2), exposure time 10.00 min) was 1.38 Da. For the same molecule, the “Relative Uptake (Da) hAng2-RBD + 4B9” value (residues 14-23 (SEQ ID NO: 2), exposure time 60.00 min) was 1.49 Da, the “Relative Uptake (Da) hAng2-RBD + 4B9” value (residues 14-23 (SEQ ID NO: 2), exposure time 240.00 min) was 1.66 Da and the “Relative Uptake (Da) hAng2-RBD + 4B9” value (residues 14-24 (SEQ ID NO: 2), exposure time 0.00 min) was 0.76 Da. For the same molecule, the “Relative Uptake (Da) hAng2-RBD + 4B9” value (residues 14-24 (SEQ ID NO: 2), exposure time 0.33 min) was 1.27 Da, the “Relative Uptake (Da) hAng2-RBD + 4B9” value (residues 14-24 (SEQ ID NO: 2), exposure time 10.00 min) was 1.75 Da and the “Relative Uptake (Da) hAng2-RBD + 4B9” value (residues 14-24 (SEQ ID NO: 2), exposure time 60.00 min) was 2.05 Da. For the same molecule, the “Relative Uptake (Da) hAng2-RBD + 4B9” value (residues 14-24 (SEQ ID NO: 2), exposure time 240.00 min) was 2.61 Da, the “Relative Uptake (Da) hAng2-RBD + 4B9” value (residues 41-47 (SEQ ID NO: 2), exposure time 0.00 min) was 0.16 Da and the “Relative Uptake (Da) hAng2-RBD + 4B9” value (residues 41-47 (SEQ ID NO: 2), exposure time 0.33 min) was 0.20 Da. For the same molecule, the “Relative Uptake (Da) hAng2-RBD + 4B9” value (residues 41-47 (SEQ ID NO: 2), exposure time 10.00 min) was 0.43 Da, the “Relative Uptake (Da) hAng2-RBD + 4B9” value (residues 41-47 (SEQ ID NO: 2), exposure time 60.00 min) was 0.54 Da and the “Relative Uptake (Da) hAng2-RBD + 4B9” value (residues 41-47 (SEQ ID NO: 2), exposure time 240.00 min) was 0.61 Da. For the same molecule, the “Relative Uptake (Da) hAng2-RBD + 4B9” value (residues 47-60 (SEQ ID NO: 2), exposure time 0.00 min) was 0.96 Da, the “Relative Uptake (Da) hAng2-RBD + 4B9” value (residues 47-60 (SEQ ID NO: 2), exposure time 0.33 min) was 1.94 Da and the “Relative Uptake (Da) hAng2-RBD + 4B9” value (residues 47-60 (SEQ ID NO: 2), exposure time 10.00 min) was 2.53 Da. For the same molecule, the “Relative Uptake (Da) hAng2-RBD + 4B9” value (residues 47-60 (SEQ ID NO: 2), exposure time 60.00 min) was 2.69 Da and the “Relative Uptake (Da) hAng2-RBD + 4B9” value (residues 47-60 (SEQ ID NO: 2), exposure time 240.00 min) was 3.06 Da.
